“Also recorded” adds a separate entry of the source.
B1: SPbeta AimR: full-length AimR (residues 1-386) from the SPbeta phage, transcription factor and arbitrium receptor (protein)
chain: MELIRIAMKKDLENDNSLMNKWATVAGLKNPNPLYDFLNHDGKTFNEFSSIVNIVKSQYPDREYELMKDYCLNLDVKTKAARSALEYADANMFFEIEDVLIDSMISCSNMKSKEYGKVYKIHRELSNSVITEFEAVKRLGKLNIKTPEMNSFSRLLLLYHYLSTGNFSPMAQLIKQIDLSEISENMYIRNTYQTRVHVLMSNIKLNENSLEECREYSKKALESTNILRFQVFSYLTIGNSLLFSNYELAQENFLKGLSISVQNENYNMIFQQALCFLNNVWRKENKWINFESDSIMDLQEQAHCFINFNENSKAKEVLDKLDLLVHNDNELAMHYYLKGRLEQNKACFYSSIEYFKKSNDKFLIRLPLLELQKMGENQKLLELLLL
modifications: left off: His6, N-terminal, cleaved
notes: full-length AimR (residues 1-386) from the SPbeta phage, transcription factor and arbitrium receptor
B2: AimR^D360A: SPbeta AimR residue D360 mutated to Ala (protein)
chain: MELIRIAMKKDLENDNSLMNKWATVAGLKNPNPLYDFLNHDGKTFNEFSSIVNIVKSQYPDREYELMKDYCLNLDVKTKAARSALEYADANMFFEIEDVLIDSMISCSNMKSKEYGKVYKIHRELSNSVITEFEAVKRLGKLNIKTPEMNSFSRLLLLYHYLSTGNFSPMAQLIKQIDLSEISENMYIRNTYQTRVHVLMSNIKLNENSLEECREYSKKALESTNILRFQVFSYLTIGNSLLFSNYELAQENFLKGLSISVQNENYNMIFQQALCFLNNVWRKENKWINFESDSIMDLQEQAHCFINFNENSKAKEVLDKLDLLVHNDNELAMHYYLKGRLEQNKACFYSSIEYFKKSNAKFLIRLPLLELQKMGENQKLLELLLL
B3: AimR^N202A: SPbeta AimR residue N202 mutated to Ala (protein)
chain: MELIRIAMKKDLENDNSLMNKWATVAGLKNPNPLYDFLNHDGKTFNEFSSIVNIVKSQYPDREYELMKDYCLNLDVKTKAARSALEYADANMFFEIEDVLIDSMISCSNMKSKEYGKVYKIHRELSNSVITEFEAVKRLGKLNIKTPEMNSFSRLLLLYHYLSTGNFSPMAQLIKQIDLSEISENMYIRNTYQTRVHVLMSAIKLNENSLEECREYSKKALESTNILRFQVFSYLTIGNSLLFSNYELAQENFLKGLSISVQNENYNMIFQQALCFLNNVWRKENKWINFESDSIMDLQEQAHCFINFNENSKAKEVLDKLDLLVHNDNELAMHYYLKGRLEQNKACFYSSIEYFKKSNDKFLIRLPLLELQKMGENQKLLELLLL
B4: AimR^ΔC-ter: AimR mutant lacking the TPR^C-ter subdomain, stop codon at position 294 (protein)
chain: MELIRIAMKKDLENDNSLMNKWATVAGLKNPNPLYDFLNHDGKTFNEFSSIVNIVKSQYPDREYELMKDYCLNLDVKTKAARSALEYADANMFFEIEDVLIDSMISCSNMKSKEYGKVYKIHRELSNSVITEFEAVKRLGKLNIKTPEMNSFSRLLLLYHYLSTGNFSPMAQLIKQIDLSEISENMYIRNTYQTRVHVLMSNIKLNENSLEECREYSKKALESTNILRFQVFSYLTIGNSLLFSNYELAQENFLKGLSISVQNENYNMIFQQALCFLNNVWRKENKWINFESD

Experiments:
SPbeta AimR operator = settings: pH 7.5
Experimental: AimR binding to its operator and the inhibition induced by the arbitrium peptides were analyzed by native polyacrylamide and agarose gel electrophoresis. […] Double strand DNA primer probes were purchased from Macrogen (Table S1 and Figure 3A). Purified PCR product or purchased probes (0.4μM) and AimR (4μM) protein were mixed in EMSA buffer (50 mM HEPES pH 7.5, 5 mM MgCl2, 75 mM NaCl and 0.5 mM EDTA). The samples were incubated for 10 min at room temperature. 8% polyacrylamide gels were electrophoresed in Tris-Borate-EDTA (TBE) buffer at 100V for one hour, followed by loading of the samples. Electrophoresis was then performed in TBE buffer at 4°C for about 150 min at 100V. Agarose gels (0.8%–1.2%) were run in TAE buffer at room temperature for about 100 min at 80V. Gels were stained with RedSafe (Intron Biotechnology).

[1] = system: spacer-length-variant operators; assay: EMSA and titration, AimR binding to spacer-length-variant operators; design: species or system Bacillus subtilis SPbeta phage; settings: apo AimR; spacers 12 to 35 bp; titration with 0.125 to 1 μg AimR
Text: (§1) Gels were stained with RedSafe (Intron Biotechnology).

[2] = system: intergenic region between yopL and yopM; assay: Nuclease protection assay (footprinting); format: binding, Bacillus subtilis SPbeta phage; settings: 0.3 μM AimR SPbeta, 10 min room temperature; DNase I 10^−4 mg/mL, 1 min at 37°C; capillary electrophoresis
[3] = SEC-MALS, oligomeric state of AimR proteins; format: physicochemical; settings: 5 mg/mL, Superdex 200 HR 10/300, 25 mM Tris pH 8, 250 mM NaCl
Experimental: SEC-MALS experiments were performed using an AKTA pure system (GE Heralthcare) coupled to a Wyatt DAWN HELEOS-II MALS instrument and a Wyatt Optilab rEX differential refractometer (Wyatt). 50 μL of the protein samples were injected at a concentration of 5 mg/mL on a Superdex 200 HR 10/300 (GE Heralthcare) column equilibrated in 25 mM Tris pH 8, 250 mM NaCl. When the effect of the peptide in the oligomeric state was tested, 1 mM peptide was added to the injected sample and the running buffer was supplemented with peptide at a final concentration of 1 μM. The Astra 7.1.2 software from the manufacturer was used for acquisition and analysis of the data.

[4] = system: putative AimR operators found in SPbeta genome; assay: EMSA, AimR binding to other SPbeta operators with longer spacers; design: species or system Bacillus subtilis SPbeta phage; settings: spacers of 27 and 28 bp
Text: as §1

SPbeta AimR D360A = assay: Thermal shift assay, mutant AimR D360A; format: binding, Bacillus subtilis SPbeta phage; settings: AimR^D360A versus WT AimR
Experimental: The thermal shift assay was conducted in a 7500 Fast Real time PCR System (Applied Biosystems). Samples of 20 μL containing 5 × Sypro Orange (Sigma-Aldrich) and 20 μM of protein in a 20 mM Tris pH 8 and 250 mM NaCl buffer were loaded in 96-well PCR plates. To calculate the apparent Kd peptide concentrations from 0 to 2 μM were added to the mixture. Samples were heated from 20 to 85°C in steps of one degree. Fluorescent intensity was plotted versus temperature and integrated with GraphPad Prism software using a Boltzmann model to calculate melting temperatures.

[5] = Size-exclusion chromatography of AimR^ΔC-ter; format: physicochemical; settings: stop codon at position 294

Row | Molecule | binding to SPbeta operator or 359 bp fragment (SPbeta AimR operator) | affinity / capacity to bind spacer-length-variant operators [1] | length of sequence protected from DNase I degradation [2] [nt] | oligomeric state in solution [3] | binding to other SPbeta operators [4] | decrease in the melting temperature with respect to the WT AimR (SPbeta AimR D360A) [°C] | oligomeric state in solution (size-exclusion chromatography) [5]
1 | B1 | binds to a 359 bp fragment | after eliminating 2 bp AimR dramatically loses its capacity to bind the operator; also recorded: can recognize operators in which the spacer has been increased even more than 6 bp | 37 | dimeric organization | AimR binding to other SPbeta operators with longer spacers | – | –
2 | B2 | – | – | – | dimeric in solution | – | 5.3 | –
3 | B3 | able to bind DNA | – | – | dimeric in solution | – | – | –
4 | B4 | – | – | – | – | – | – | monomeric in solution
